For five substances, Kd, koff and kon results are on record in article PMC4220304.

For the assay, the target named is L363 antibody (anti-CD1d-α-GalCer). Put plainly: SPR. (In SPR one partner is held on a chip, and binding of the other changes the refractive index at the surface.)
The substance “CD1d loaded with α-GluCer (from UniProt P11609 22-297; P01887 21-119) (complex)” gave a dissociation constant (Kd) of 5.02 µM, a koff of 0.471 s⁻¹ and a kon of 93700 M⁻¹ s⁻¹.

Take “CD1d loaded with α-lyso-galactosylceramide (α-psychosine) (from UniProt P11609 22-297; P01887 21-119) (complex)”: the Kd was 2.23 µM and the kon is 943000 M⁻¹ s⁻¹.

“CD1d loaded with α-GalCer (from UniProt P11609 22-297; P01887 21-119) (complex)”: the Kd stood at 0.0967 µM and the on-rate (kon) is 85700 M⁻¹ s⁻¹.

Turning to “CD1d loaded with α-lyso-glucosylceramide (α-glucopsychosine) (from UniProt P11609 22-297; P01887 21-119) (complex)”, the Kd stood at 8.14 µM, the koff is 0.115 s⁻¹ and the kon turned out to be 4590 M⁻¹ s⁻¹.

In turn, “CD1d loaded with C24:1 α-GalCer (from UniProt P11609 22-297; P01887 21-119) (complex)” yielded an equilibrium dissociation constant (Kd) of 0.35 µM and a kon of 142000 M⁻¹ s⁻¹.

The Kd is the free concentration of one partner at which half of the binding sites on the other are occupied at equilibrium, for simple one-to-one binding. A low value points to higher affinity. The term koff denotes the rate constant with which the complex falls apart. Broadly, the kon is the second-order rate constant of association. A high value points to faster complex formation.
